Data reported in PMC11253692.

Biological target: TGF-β1 (human, UniProt P01137 279-390)
Assay: ELISA

Chain of TGF-β1 (P01137 279-390): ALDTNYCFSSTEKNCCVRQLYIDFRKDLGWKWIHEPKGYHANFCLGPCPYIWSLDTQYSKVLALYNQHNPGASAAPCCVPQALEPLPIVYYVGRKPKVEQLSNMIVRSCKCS

B1: TGF-β1 aptamer (ssDNA)
DNA: CGCTCGGCTTCACGAGATTCGTGTCGTTGTGTCCTGTACCCGCCTTGACCAGTCACTCTAGAGCATCCGGACTG
modifications: 5'-SH (coupled to PEG-maleimide hydrogel)
Which binding signal does the source give for B1 here?
Its binding signal is > 60 % bound (highest binding ratio, reached at 4 h).
